Assay results reported in US5597719, “Interaction of RAF-1 and 14-3-3 proteins” (Onyx Pharmaceuticals, Inc., dated 1997).

Experiments:
[1] = target: GAL4 DNA-binding domain alone (Saccharomyces cerevisiae (strain ATCC …, UniProt P04386)); assay: yeast two-hybrid
Excerpt: However, interaction between 14-3-3β and the bcr gene product, which itself has endogenous kinase activity, was detected.
The Raf-1 coding sequence was isolated by PCR amplification of a human placental cDNA library purchased from Stratagene (San Diego, Calif.) as described by MacDonald et al. (1993) *Mol. Cell Biol.* 13: 16.15. For use in the two hybrid screen (Chien et al. (1991) *Proc. Natl. Acad. Sci. USA* 88: 9578), the Raf-1 gene was fused to sequence encoding the GAL4-DNA binding domain by digesting pGEM Raf-I with NcoI and SacI to liberate the Raf-1 coding sequence and subcloning into the pGBT8 plasmid (Hannon et al. (1993) *Genes & Dev.* 7: 2378) digested also with Nco I and Sac I. Yeast (*S. cerevisiae*) of strain YGH-1 (Hannon et al. (1993) op.cit.) were transformed with pGBT8 Raf1, and the resultant strain was transformed with a HeLa cell cDNA library encoding fusions with the GAL4 activation domain in the plasmid pGAD (Chien et al. (1991) *Proc. Natl. Acad. Sci.* (USA) 88: 9578). The YGH-1 strain contains two reported genes, HIS3 and lacZ, which allow selection of cDNAs encoding proteins capable of interacting with the gene of interest, in this case, Raf-1. The first selection was by the ability to grow on plates lacking histidine. Positive colonies were then tested for production of β-galactodidase using X-gal as substrate as described by Hannon et al. op.cit. […]

[2] = target: full-length Raf-1 (wildtype Raf) (human); assay: cell-based or functional assay
[3] = target: Ras-binding domain of Raf (aa51-aa131) (human); assay: ELISA

Binder	binding result [1]	Raf activity in cells containing the 14-3-3 proteins [2]	binding result [3]
human P1A2 (14-3-3ζ) fused with GAL4 activation domain (other) MDKNELVQKAKLAEQAERYDDMAACMKSVTEQGAELSNEERNLLSVAYKNVVGARRSSWRVVSSIEQKTEGAEKKQQMAREYREKIETELRDICNDVLSLLEKFLIPNASQAESKVFYLKMKGDYYRYLAEVAAGDDKKGIVDQSQQAYQEAFEISKKEMQPTHPIRLGLALNFSVFYYEILNSPEKACSLAKTAFDEAIAELDTLSEESYKDSTLIMQLLRDNLTLWTSDTQGDEAEAGEGGEN	no binding	–	–
14-3-3ζ (not fused to GAL4) (other) MDKNELVQKAKLAEQAERYDDMAACMKSVTEQGAELSNEERNLLSVAYKNVVGARRSSWRVVSSIEQKTEGAEKKQQMAREYREKIETELRDICNDVLSLLEKFLIPNASQAESKVFYLKMKGDYYRYLAEVAAGDDKKGIVDQSQQAYQEAFEISKKEMQPTHPIRLGLALNFSVFYYEILNSPEKACSLAKTAFDEAIAELDTLSEESYKDSTLIMQLLRDNLTLWTSDTQGDEAEAGEGGEN	–	2 fold increase over background	–

More lines, now with the values ahead:

binding result [1]	Raf activity in cells containing the 14-3-3 proteins [2]	binding result [3]	Binder
no binding	–	–	human HS1 1054 (14-3-3β) fused with GAL4 activation domain (other) MTMDKSELVQKAKLAEQAERYDDMAAAMKAVTEQGHELSNEERNLLSVAYKNVVGARRSSWRVISSIEQKTERNEKKQQMGKEYREKIEAELQDICNDVLELLDKYLIPNATQPESKVFYLKMKGDYFRYLSEVASGDNKQTTVSNSQQAYQEAFEISKKEMQPTHPIRLGLALNFSVFYYEILNSPEKACSLAKTAFDEAIAELDTLNEESYKDSTLIMQLLRDNLTLWTSENQGDEGDAGEGEN
–	2 fold increase over background	no binding	14-3-3β (not fused to GAL4) (other) MTMDKSELVQKAKLAEQAERYDDMAAAMKAVTEQGHELSNEERNLLSVAYKNVVGARRSSWRVISSIEQKTERNEKKQQMGKEYREKIEAELQDICNDVLELLDKYLIPNATQPESKVFYLKMKGDYFRYLSEVASGDNKQTTVSNSQQAYQEAFEISKKEMQPTHPIRLGLALNFSVFYYEILNSPEKACSLAKTAFDEAIAELDTLNEESYKDSTLIMQLLRDNLTLWTSENQGDEGDAGEGEN
